Measured values published in PMC11661314 (bioRxiv, 2024).

T1: E. coli (UTI89) FimH lectin domain truncate (Escherichia coli UTI89, strain)
T1 chain: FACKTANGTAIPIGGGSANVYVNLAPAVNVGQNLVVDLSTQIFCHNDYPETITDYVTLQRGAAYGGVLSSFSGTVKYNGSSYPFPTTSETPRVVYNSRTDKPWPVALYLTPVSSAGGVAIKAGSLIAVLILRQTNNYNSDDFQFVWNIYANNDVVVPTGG

T2: K. pneumoniae (TOP52) FimH lectin domain truncate (Klebsiella pneumoniae TOP52, strain)
T2 chain: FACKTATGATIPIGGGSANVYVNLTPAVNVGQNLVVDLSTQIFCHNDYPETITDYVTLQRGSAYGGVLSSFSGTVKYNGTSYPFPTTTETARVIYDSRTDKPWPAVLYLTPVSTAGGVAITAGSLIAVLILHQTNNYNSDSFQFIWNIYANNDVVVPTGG

T3: E. coli FmlH lectin domain (Escherichia coli UTI89 (strain from PDB …))
T3 chain: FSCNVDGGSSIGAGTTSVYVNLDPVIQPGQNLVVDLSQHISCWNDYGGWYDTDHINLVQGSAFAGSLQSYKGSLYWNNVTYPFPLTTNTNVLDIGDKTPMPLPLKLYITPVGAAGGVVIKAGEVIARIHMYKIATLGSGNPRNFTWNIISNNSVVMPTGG


What was measured:
Test in all cases: ELISA
[1] = biological target: T1, E. coli (UTI89) FimH lectin domain …
[2] = biological target: T2, K. pneumoniae (TOP52) FimH lectin …
[3] = biological target: T3, E. coli FmlH lectin domain

Row | Binder | binding result [1] | binding result [2] | binding result [3]
1 | Kp1 2H04 mAb (chimeric murine/human IgG) (antibody, V domains shown) VH: EVQLQQSGAELVKPGASVKLSCKASGYTFTSYWMHWVKQRPGQGLEWIGLIHPNSSSTYYNEKFKTRATLTVDKSSSTAYMQLSSLTSEDSAVYYCARLGYGNSYWYFDVWGTGTTVTVSS VL: QIVLTQSPALMAASPGEKVTITCSVSSSISSSNLHWYQQKSETSPKPWIYGTSNLASGVPIRFSGSGSGTSYSLTISSLEAEDAATYYCQQWRSYPWTFGGGTKLEIK | binds | binds | –
2 | Ec1 F7 mAb (chimeric murine/human IgG) (antibody, V domains shown) VH: EVQLQQPGPVLVKPGPSVKISCKASGFTFTDYFIHWVKQSHGKSLEWIGLVSPYNGGTYYNQQFKGKATLTVDTSSSTAYMDLNSLTSEDSAVYYCTRLLRGYWYFDVWGTGTTVTVSS VL: QIVLTQSPALMAASPGEKVTITCSVSSSIGSSNLHWYQQKSETSPKPWIYGTSNLASGVPVRFSGSGSGTSYSLTISSMEAEDAATYYCQQWSTYPYTFGGGTKLEIK | binds | binds | –
3 | Kp2 2C07 mAb (chimeric murine/human IgG) (antibody, V domains shown) VH: EVKLVESGEGLVKPGGSLKLSCAASGFTFSSYAMSWVRQTPEKRLDWVAYISSGGDHIYYADTVKGRFTISRDNARNTLYLQMSSLKSEDTAMYYCTRDTGYYVSRYFDVWGTGTTVTVSS VL: DIVMTQSQKFMSTSVGDRVSVTCKASQNVVTNVAWYQQKSGQSPKVVIYSASFRSSGVPDRFTGSGSGTDFTLTISNVQSEDLAEYFCHQYNSHPLTFGGGTKLEIK | binds | binds | no binding
4 | Ec3 B7 mAb (chimeric murine/human IgG) (antibody, V domains shown) VH: EVQLQQPGAELVRPGASVKMSCKASGYTFTIYNLHWVKQTPRQGLEWIGTIYPGDGDTSYNQKFKGKATLTVDKSSSTAYMQLSNLTSEDSAVYFCAREGDYGPWFAYWGQGTLVTVSA VL: QIVLTQSPAIMSASPGEKVTMTCRASSSVSSSYLHWYQQKSGASPKLWIYSSSNLASGVPARFSGSGSGTSYSLTINSVEAEDAATYYCQHYGSYPLTFGGGTKLEIK | binds | – | –
